This is an account of results in US20090023158A1.

Data set [1] concerns C99GVP-S26L.
In data set [2] the test system is C99GVP-SREBP1-gsnk.
For data set [3], the system named is C99GVP-SLSS.
In data set [4] the test system is C99GVP-K28S.
In data set [5] the test system is C99GVP-N27S.
Data set [6] has as its system C99GVP-G25S.

On to gamma secretase (endogenous, HEK cells), for which the “AICD production and signaling activity” value is “little difference in their respective AICD production (FIG. 9A, lower panels) and signaling activity (FIG. 9D)” in data set [1]; “little difference in their respective AICD production (FIG. 9A, lower panels) and signaling activity (FIG. 9D)” in data set [4]; “little difference in their respective AICD production (FIG. 9A, lower panels) and signaling activity (FIG. 9D)” in data set [5]; “little difference in their respective AICD production (FIG. 9A, lower panels) and signaling activity (FIG. 9D)” in data set [6]. Also, the “Aβ40 (secreted, ELISA)” value is on record as “a 52.7±2.3% drop of Aβ40” in data set [1] and “the K28S substitution resulted in an even more substantial (˜90%) decrease in both measurements” in data set [4]. The “total Aβ (secreted)” value in data set [1] is recorded as “The S26L mutation led to a 65.7±8.5% reduction in total Aβ”; in data set [4] it was “the K28S substitution resulted in an even more substantial (˜90%) decrease in both measurements”. For the same substance, in data set [2], the Aβ secretion entry is “also maintained normal Aβ secretion”. Also, the “secreted Aβ” value was “This mutation led to a marked reduction (˜97%) in secreted Aβ” in data set [3]; “the other two mutations, G25S and N27S, showed no obvious effect on secreted Aβ” in data set [5]; “the other two mutations, G25S and N27S, showed no obvious effect on secreted Aβ” in data set [6].
